The values below come from the supplement of paper PMC9112550, “Optimization of the antimicrobial peptide Bac7 by deep mutational scanning” (BMC Biology, 2022).

The subject of the data set is Escherichia coli TOP10. The experiment in a line: shrunken log2 fold change of peptide-encoding DNA abundance (4.5 h post-induction vs induction); higher = less antimicrobial activity (less host growth inhibition). The conditions noted are these: time post-induction: 4.5 h; library: site-saturation at positions 5, 18, 19, 20.
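Further: peptides expressed intracellularly from a pBAD plasmid library in pooled LB shake-flask culture, induced with 0.3% L-arabinose, DNA abundance read by NGS, three biological replicates, DESeq2 with apeglm shrinkage.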

Regarding RRIRNRPPRLPRPRPRPVQSPRP, the “shrunken log2 fold change” value is 0.00489. For the sequence RRIRIRPPRLPRPRPRPICIPRP, the “shrunken log2 fold change” value is -0.127. In the case of RRIRNRPPRLPRPRPRPCNRPRP, the “shrunken log2 fold change” value is -0.00992. Under RRIRARPPRLPRPRPRPMQNPRP stands 0.767. Turning to RRIRLRPPRLPRPRPRPWAVPRP, the “shrunken log2 fold change” value is 0.0558.

Turning to RRIRVRPPRLPRPRPRPPFQPRP, the “shrunken log2 fold change” value was determined as 0.164.

For the sequence RRIRKRPPRLPRPRPRPAPTPRP, the “shrunken log2 fold change” value was 1.01.

Turning to RRIRIRPPRLPRPRPRPIHFPRP, the “shrunken log2 fold change” value was -0.0704.

As to RRIRARPPRLPRPRPRPAHAPRP, the “shrunken log2 fold change” value was 1.07. Under RRIRPRPPRLPRPRPRPFTEPRP stands -0.649. To RRIRQRPPRLPRPRPRPHICPRP belongs -0.049; to RRIRPRPPRLPRPRPRPIRNPRP, -0.0919. To RRIRDRPPRLPRPRPRPAFPPRP belongs -0.0705; to RRIRKRPPRLPRPRPRPAILPRP, 0.0725; to RRIRFRPPRLPRPRPRPIEYPRP, -0.00801. Consider RRIRCRPPRLPRPRPRPEAYPRP, for which the “shrunken log2 fold change” value is -0.0117. Under RRIRLRPPRLPRPRPRPIVKPRP stands -0.0195.

In the case of RRIRPRPPRLPRPRPRPMWKPRP, the “shrunken log2 fold change” value was -0.146. Under RRIRYRPPRLPRPRPRPMRDPRP stands -0.151; under RRIRHRPPRLPRPRPRPWMNPRP, -0.0538. For the sequence RRIRNRPPRLPRPRPRPAPFPRP, the “shrunken log2 fold change” value was -0.299.

Consider RRIRNRPPRLPRPRPRPHWMPRP, for which the “shrunken log2 fold change” value is -0.0835. Turning to RRIRRRPPRLPRPRPRPRRVPRP, the “shrunken log2 fold change” value came out at 0.347. As for RRIRCRPPRLPRPRPRPRLSPRP, the “shrunken log2 fold change” value was 0.0865. Under RRIRVRPPRLPRPRPRPWHEPRP stands -0.127; under RRIRVRPPRLPRPRPRPMWLPRP, 0.0511. To RRIRCRPPRLPRPRPRPTWTPRP belongs 0.362; to RRIRERPPRLPRPRPRPEWHPRP, 0.0244; to RRIRLRPPRLPRPRPRPCYIPRP, -0.115.

Consider RRIRGRPPRLPRPRPRPPPVPRP, for which the “shrunken log2 fold change” value was found to be 1.25. To RRIRARPPRLPRPRPRPITWPRP belongs 0.0845; to RRIRRRPPRLPRPRPRPPHLPRP, 0.52; to RRIRMRPPRLPRPRPRPAKKPRP, 0.209.

Regarding RRIRERPPRLPRPRPRPNPRPRP, the “shrunken log2 fold change” value worked out at 0.134. Under RRIRPRPPRLPRPRPRPIPRPRP stands 0.449; under RRIRKRPPRLPRPRPRPQVFPRP, 0.00956; under RRIRNRPPRLPRPRPRPRGKPRP, 0.0233.

For RRIRRRPPRLPRPRPRPERKPRP, the “shrunken log2 fold change” value was determined as 0.0556.

Regarding RRIRCRPPRLPRPRPRPQHTPRP, the “shrunken log2 fold change” value is -0.0159. RRIRNRPPRLPRPRPRPMRSPRP: the “shrunken log2 fold change” value came out at 1.09. Consider RRIRPRPPRLPRPRPRPRLPPRP, for which the “shrunken log2 fold change” value stood at 0.383. Under RRIRLRPPRLPRPRPRPGCVPRP stands 0.182; under RRIRRRPPRLPRPRPRPGYQPRP, 0.0538; under RRIRCRPPRLPRPRPRPFDQPRP, -0.136. Under RRIRERPPRLPRPRPRPVLEPRP stands -0.0875; under RRIRFRPPRLPRPRPRPSMNPRP, 0.274. Under RRIRERPPRLPRPRPRPHLFPRP stands -0.178; under RRIRDRPPRLPRPRPRPTTAPRP, 1.3; under RRIRWRPPRLPRPRPRPAYTPRP, 0.0906. As for RRIRYRPPRLPRPRPRPRCTPRP, the “shrunken log2 fold change” value is -0.407.

Take RRIRNRPPRLPRPRPRPQNDPRP: the “shrunken log2 fold change” value is -0.966. On to RRIRTRPPRLPRPRPRPNWDPRP, for which the “shrunken log2 fold change” value was 0.00303. For RRIRQRPPRLPRPRPRPHPYPRP, the “shrunken log2 fold change” value was -0.0131. To RRIRTRPPRLPRPRPRPLLDPRP belongs 0.214; to RRIRCRPPRLPRPRPRPPRYPRP, 0.753; to RRIRSRPPRLPRPRPRPVAPPRP, 0.397. Consider RRIRKRPPRLPRPRPRPEFCPRP, for which the “shrunken log2 fold change” value is 0.771.

As for RRIRDRPPRLPRPRPRPNWIPRP, the “shrunken log2 fold change” value was -0.389.

On to RRIRERPPRLPRPRPRPTMDPRP, for which the “shrunken log2 fold change” value was 0.0537. Under RRIRTRPPRLPRPRPRPCPCPRP stands -0.366; under RRIRNRPPRLPRPRPRPLNVPRP, -0.0912. Under RRIRPRPPRLPRPRPRPIKWPRP stands 0.0716. Consider RRIRDRPPRLPRPRPRPTRDPRP, for which the “shrunken log2 fold change” value turned out to be 0.734. To RRIRMRPPRLPRPRPRPSFKPRP belongs -0.0765; to RRIRPRPPRLPRPRPRPQSDPRP, 0.0199; to RRIRIRPPRLPRPRPRPNRFPRP, -0.174.

On to RRIRERPPRLPRPRPRPINQPRP, for which the “shrunken log2 fold change” value is -0.734. In the case of RRIRFRPPRLPRPRPRPLRYPRP, the “shrunken log2 fold change” value was -0.192. To RRIRDRPPRLPRPRPRPAKLPRP belongs 0.0322.

Regarding RRIRDRPPRLPRPRPRPAPIPRP, the “shrunken log2 fold change” value turned out to be 0.32.

RRIRCRPPRLPRPRPRPRINPRP: the “shrunken log2 fold change” value was -0.0891. To RRIRRRPPRLPRPRPRPLGKPRP belongs -0.017; to RRIRHRPPRLPRPRPRPHMVPRP, -1.01; to RRIRERPPRLPRPRPRPEGRPRP, 0.583. To RRIRPRPPRLPRPRPRPVRFPRP belongs 0.28; to RRIRGRPPRLPRPRPRPTYAPRP, 0.436; to RRIRERPPRLPRPRPRPIYWPRP, -0.0719.

As for RRIRFRPPRLPRPRPRPARLPRP, the “shrunken log2 fold change” value was 0.175.

RRIRMRPPRLPRPRPRPCRQPRP: the “shrunken log2 fold change” value amounted to 0.0303. Under RRIRVRPPRLPRPRPRPKVQPRP stands 3.74; under RRIRYRPPRLPRPRPRPQIIPRP, -0.248.

Regarding RRIRDRPPRLPRPRPRPNLHPRP, the “shrunken log2 fold change” value was -0.0379.

As for RRIRVRPPRLPRPRPRPQSQPRP, the “shrunken log2 fold change” value is -0.214. To RRIRCRPPRLPRPRPRPRQAPRP belongs 0.00566; to RRIRTRPPRLPRPRPRPISPPRP, -0.357. Under RRIRHRPPRLPRPRPRPYQVPRP stands -0.0252.

On to RRIRMRPPRLPRPRPRPMNGPRP, for which the “shrunken log2 fold change” value was 0.0715. Under RRIRWRPPRLPRPRPRPKCCPRP stands 0.0888; under RRIRWRPPRLPRPRPRPSRLPRP, 0.00373. Consider RRIRKRPPRLPRPRPRPTFLPRP, for which the “shrunken log2 fold change” value was 0.228.

Turning to RRIRCRPPRLPRPRPRPCEQPRP, the “shrunken log2 fold change” value is -0.222.
